Where no end group is shown, it is not given here.
B1: mouse monoclonal anti-Eag1 antibody ImAb3 (antibody, mouse IgG2b, kappa, V domains shown)
VH: EVKLVESGGGLVQPGGSLRLSCATSGFTFTDYYMSWVRQPPGKALEWLGFIRNKATGYTTEYSASVKGRFTISRDNSQSILYLQMNTLRAEDSATYYCARDFGSRWYFDVWGAGTTVTVSS
VL: DIVMSQSPSSLAVSAGEKVTMSCKSSQSLLNSRTRKNYLAWYQQKPGQSPKLLIYWASTRESGVPDRFTGSGSGTDFTLTISSVQAEDLAVYYCKQSYDLRTFGGGTKLEIKR
notes: Murine IgG2b / kappa
B2: mouse monoclonal anti-Eag1 antibody ImAb4 (antibody, mouse IgG2b, kappa, V domains shown)
VH: DVQLQESGPGLVKPSQSLSLTCTVTGYSITSDYAWNWIRQFPGNKLEWMGYISYSGSTIYNPSLKSRISITRDTSKNQFFLQLNSVTTEDTATYYCARFGNYGNTLNYWGQGTSVTVSS
VL: DVVMTQTPLSLPVSLGDQASISCRSSQSLVHSNGNTYLHWYLQKPGQSPKLLIYKVSNRFSGVPDRFSGSGSGTDFTLKISRVEAEDLGVYFCSQSTHVPPTFGGGTKLEIKR
notes: Murine IgG2b / kappa

What was measured:
[1] = target: Eag1 ion channel expressed in cells (Eag1 overexpressing CHO K1 cells; Eag1-expressing oocytes; transfected HEK293 cells) (UniProt O95259); assay: cell-based or functional assay
[2] = target: T1, SPOT peptide 23, GSGSGKWEGGPSK; assay: SPOT peptide membrane, ECL
T1 construct: also called spot 23
T1 peptide: GSGSGKWEGGPSK

[3] = target: T2, SPOT peptide 21, YQFNGSGSGKWEG; assay: SPOT peptide membrane, ECL
T2 construct: also called spot 21
T2 peptide: YQFNGSGSGKWEG

[4] = target: T3, SPOT peptide 22, FNGSGSGKWEGGP; assay: SPOT peptide membrane, ECL
T3 construct: also called spot 22
T3 peptide: FNGSGSGKWEGGP

[5] = target: T4, SPOT peptide 24, GSGKWEGGPSKNS; assay: SPOT peptide membrane, ECL
T4 construct: also called spot 24
T4 peptide: GSGKWEGGPSKNS

[6] = target: T5, rat Eag1 (rat brain sections, hippocampus and cerebellum) (rat, UniProt Q63472 1-962); assay: immunohistochemistry on rat brain sections (hippocampus, cerebellum)
T5 construct: whole, on cells; Native protein in fixed tissue sections (immunohistochemistry)
T5 sequence (looked up): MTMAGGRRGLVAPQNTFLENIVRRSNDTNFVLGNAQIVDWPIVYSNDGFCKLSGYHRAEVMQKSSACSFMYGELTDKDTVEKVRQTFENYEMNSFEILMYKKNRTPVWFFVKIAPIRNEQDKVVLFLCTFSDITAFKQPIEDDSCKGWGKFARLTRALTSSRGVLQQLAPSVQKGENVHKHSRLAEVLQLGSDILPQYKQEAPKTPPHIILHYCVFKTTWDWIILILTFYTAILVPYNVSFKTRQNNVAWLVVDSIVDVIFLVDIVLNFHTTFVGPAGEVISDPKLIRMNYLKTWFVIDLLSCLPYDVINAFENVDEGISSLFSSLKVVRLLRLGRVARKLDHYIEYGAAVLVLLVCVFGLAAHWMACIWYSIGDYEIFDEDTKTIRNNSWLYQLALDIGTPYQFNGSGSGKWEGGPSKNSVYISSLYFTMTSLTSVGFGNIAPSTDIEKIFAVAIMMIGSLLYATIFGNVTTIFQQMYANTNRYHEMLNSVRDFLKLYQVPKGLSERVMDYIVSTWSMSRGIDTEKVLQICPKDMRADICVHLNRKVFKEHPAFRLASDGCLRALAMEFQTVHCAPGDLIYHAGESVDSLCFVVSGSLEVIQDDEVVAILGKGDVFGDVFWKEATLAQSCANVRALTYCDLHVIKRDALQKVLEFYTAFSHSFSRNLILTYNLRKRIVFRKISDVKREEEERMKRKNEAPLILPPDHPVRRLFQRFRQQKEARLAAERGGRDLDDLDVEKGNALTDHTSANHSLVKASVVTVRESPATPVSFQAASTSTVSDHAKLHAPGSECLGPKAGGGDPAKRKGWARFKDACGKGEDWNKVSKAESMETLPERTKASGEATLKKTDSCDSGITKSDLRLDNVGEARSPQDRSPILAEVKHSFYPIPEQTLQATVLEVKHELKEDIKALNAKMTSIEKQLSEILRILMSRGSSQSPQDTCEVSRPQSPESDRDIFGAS

[7] = target: T6, SPOT peptide 6, MGDYEIFDEDTKT (also: covalently bound to a cellulose SPOT membrane); assay: SPOT peptide membrane, ECL
T6 construct: also called spot 6
T6 peptide: MGDYEIFDEDTKT

[8] = target: T7, SPOT peptide 3, HHHSSGMGDYEIF (also: covalently bound to cellulose SPOT membrane); assay: SPOT peptide membrane, ECL
T7 construct: holds residues of the immunogen's His tag; also called spot 3
T7 peptide: HHHSSGMGDYEIF

[9] = target: T8, SPOT peptide 7, DYEIFDEDTKTIR (also: covalently bound to a cellulose SPOT membrane); assay: SPOT peptide membrane, ECL
T8 construct: also called spot 7
T8 peptide: DYEIFDEDTKTIR

[10] = target: T9, SPOT peptide 4, HSSGMGDYEIFDE (also: covalently bound to cellulose SPOT membrane); assay: SPOT peptide membrane, ECL
T9 construct: also called spot 4
T9 peptide: HSSGMGDYEIFDE

[11] = target: T10, SPOT peptide 5, SGMGDYEIFDEDT (also: covalently bound to a cellulose SPOT membrane); assay: SPOT peptide membrane, ECL
T10 construct: also called spot 5
T10 peptide: SGMGDYEIFDEDT

[12] = target: T11, SPOT peptide 8, EIFDEDTKTIRNN; assay: SPOT peptide membrane, ECL
T11 construct: also called spot 8
T11 peptide: EIFDEDTKTIRNN

Binder	current inhibition, whole cell patch clamp on transfected HEK293 cells, 300 nM antibody [1]	binding result [2]	binding result [3]	binding result [4]	binding result [5]	binding result [6]	binding result [7]	binding result [8]	binding result [9]	binding result [10]	binding result [11]	binding result [12]
B1	35%	binds	binds	binds	binds							
B2						binds	binds	binds	binds	binds	binds	binds

Reference: patent US20090028851A1 (MAXPLANCK GESELLSCHAFT ZUR F RDERUNG DER WISSENSCH, published 2009)
